This assay addresses HIV-1 IIIB p24 recombinant protein (HIV-1 IIIB). Briefly: SPR, mAb immobilized on a Protein A chip, 0-200 nM p24, room temperature.

The record followed here is patent US20200182883A1.

By Kd is commonly meant a measure of binding affinity in units of concentration. As usually defined, the koff is the first-order rate constant of dissociation. As a reminder, the kon is the rate constant with which the complex forms.

B1: N60P55 (antibody, V domains shown)
VH: QVQLRESGPGLVKPSATLSLTCIVSGGSMSGYYWSWIRQPPGKGLEWIGHIDNNERTISSPSLNSRVTVSPDTSRNRFTLTLSSVTAADTATYYCARHVVYGGLDIWGQGTLVTVSS
VL: EIVLTQSPGTLSLSPGERASLSCRASDIVSINYFAWYQQKPGQAPRLLISGASVRATGIPDRFSGSGSGTDFTLTINRLEPEDVAVYYCQQHGSSPTFGQGTKVEIK
Consider B1, for which the Kd was found to be 0.0917 nM, the koff was found to be 6.55e-05 s⁻¹ and the kon came to 715000 M⁻¹ s⁻¹.
